Target: 14R1 revertant mutant E
Test: ELISA, epitope mapping

B1: monoclonal antibody 61D8 (IgG) (antibody, V domains shown)
VH: CKASGYSFTSYWMHWVKQRPGQGLEWIGMIDPSDSETKLNQQFKDKATLTVDTSSSTAYMQLTSPTSEDSVVYYCARGKMGGRFYFDYLGQGTTLTVSS
VL: ITCKASQDVGTAVVWYQQKPGQSPKLLIYWASTRHTGVPDRFTGSGFGTDFTLTISNVQSEDLADYFCQQFSSYPYTFGGGTKLEIKR
In the case of B1, the fold reduction in 61D8 binding (against 14R1) is reported as 30 fold.

— patent publication US20220064233A1
